Source: patent US20240116985A1 (published 2024)
Starred links: 1 amine or outer side, 2 acyl side, 3 side chain; linkers in the order of their positions; H or OH if unused. Positions of bridges follow the written chain, without caps; N, C: chain ends. Non-standard residues stand in square brackets, D forms with d. Groups on a side chain read outwards from the residue. Primed or numbered codes have the meaning given here. No end group written: not given here. *: point of attachment. PyrS2″ = (S)-3-amino-1-((pent-4-en-1-yloxy)carbonyl)pyrrolidine-3-carboxylic acid (stapling residue), C=CCCCOC(=O)N1CC[C@@](N[*:1])(C(=O)[*:2])C1; B5(4) = 2,2-bis(4-pentenyl)glycine = 2-amino-2-(pent-4-en-1-yl)hept-6-enoic acid (stitching residue), C=CCCCC(CCCC=C)(N[*:1])C(=O)[*:2]; (CH2NMe2)4SEF = (S)-2-amino-3-(4-(3-(dimethylamino)prop-1-yn-1-yl)phenyl)propanoic acid, CN(C)CC#Cc1ccc(C[C@H](N[*:1])C(=O)[*:2])cc1; PyrS2 = (S)-3-amino-1-((pent-4-en-1-yloxy)carbonyl)pyrrolidine-3-carboxylic acid, C=CCCCOC(=O)N1CC[C@@](N[*:1])(C(=O)[*:2])C1; Lithocholoyl = C[C@H](CCC(=O)*)[C@H]1CC[C@H]2[C@@H]3CC[C@@H]4C[C@H](O)CC[C@]4(C)[C@H]3CC[C@]12C; B5(3) = 2,2-bis(4-pentenyl)glycine (stitching residue), C=CCCCC(CCCC=C)(N[*:1])C(=O)[*:2]; Me3AdamantC = 3,5,7-trimethyladamantane-1-carbonyl, CC12CC3(C)CC(C)(C1)CC(C(=O)*)(C2)C3; Phe(3-CF3) = N[C@@H](Cc1cccc(C(F)(F)F)c1)C(=O)O; Phe(4-CF3) = N[C@@H](Cc1ccc(C(F)(F)F)cc1)C(=O)O; Phe(2-CF3) = N[C@@H](Cc1ccccc1C(F)(F)F)C(=O)O; Phe(2-Cl) = N[C@@H](Cc1ccccc1Cl)C(=O)O; Ala(cPent) = N[C@@H](CC1CCCC1)C(=O)O; Bta = N[C@@H](Cc1csc2ccccc12)C(=O)O; αAllylPro = C=CC[C@@]1(C(=O)O)CCCN1; tBuAla = CC(C)(C)C[C@H](N)C(=O)O; 3Thi = N[C@@H](Cc1ccsc1)C(=O)O; S8 = C=CCCCCCC[C@](C)(N)C(=O)O; Phe(ol) = N[C@H](CO)Cc1ccccc1; PEG2′ = not defined here

T1: B-cat-Halo (beta-catenin HaloTag NanoBRET construct expressed in HEK293 cells) (UniProt P35222 2-781)
T1 sequence (looked up): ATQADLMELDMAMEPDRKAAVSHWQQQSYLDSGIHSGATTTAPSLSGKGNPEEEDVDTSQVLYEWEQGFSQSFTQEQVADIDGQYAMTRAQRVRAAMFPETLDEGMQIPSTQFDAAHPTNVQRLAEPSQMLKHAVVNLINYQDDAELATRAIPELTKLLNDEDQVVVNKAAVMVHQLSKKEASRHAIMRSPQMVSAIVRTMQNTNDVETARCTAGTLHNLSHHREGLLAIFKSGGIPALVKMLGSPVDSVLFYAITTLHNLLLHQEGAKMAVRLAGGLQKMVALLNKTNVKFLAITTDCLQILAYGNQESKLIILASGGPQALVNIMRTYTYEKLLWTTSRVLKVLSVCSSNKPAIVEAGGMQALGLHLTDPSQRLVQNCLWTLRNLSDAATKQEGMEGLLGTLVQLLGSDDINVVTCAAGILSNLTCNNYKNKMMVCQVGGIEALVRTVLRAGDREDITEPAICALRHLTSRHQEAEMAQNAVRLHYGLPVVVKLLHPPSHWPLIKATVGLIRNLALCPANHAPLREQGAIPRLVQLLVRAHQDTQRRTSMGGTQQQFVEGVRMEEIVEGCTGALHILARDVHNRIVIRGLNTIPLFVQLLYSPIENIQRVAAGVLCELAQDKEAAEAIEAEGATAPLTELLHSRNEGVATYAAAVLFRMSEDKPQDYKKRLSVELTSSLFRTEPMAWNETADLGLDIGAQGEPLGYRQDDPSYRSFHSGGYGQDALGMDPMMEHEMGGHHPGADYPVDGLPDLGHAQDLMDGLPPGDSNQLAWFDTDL

T2: Bcat-Halo (beta-catenin HaloTag fusion expressed in HEK293 cells) (UniProt P35222 1-781)
T2 sequence (looked up): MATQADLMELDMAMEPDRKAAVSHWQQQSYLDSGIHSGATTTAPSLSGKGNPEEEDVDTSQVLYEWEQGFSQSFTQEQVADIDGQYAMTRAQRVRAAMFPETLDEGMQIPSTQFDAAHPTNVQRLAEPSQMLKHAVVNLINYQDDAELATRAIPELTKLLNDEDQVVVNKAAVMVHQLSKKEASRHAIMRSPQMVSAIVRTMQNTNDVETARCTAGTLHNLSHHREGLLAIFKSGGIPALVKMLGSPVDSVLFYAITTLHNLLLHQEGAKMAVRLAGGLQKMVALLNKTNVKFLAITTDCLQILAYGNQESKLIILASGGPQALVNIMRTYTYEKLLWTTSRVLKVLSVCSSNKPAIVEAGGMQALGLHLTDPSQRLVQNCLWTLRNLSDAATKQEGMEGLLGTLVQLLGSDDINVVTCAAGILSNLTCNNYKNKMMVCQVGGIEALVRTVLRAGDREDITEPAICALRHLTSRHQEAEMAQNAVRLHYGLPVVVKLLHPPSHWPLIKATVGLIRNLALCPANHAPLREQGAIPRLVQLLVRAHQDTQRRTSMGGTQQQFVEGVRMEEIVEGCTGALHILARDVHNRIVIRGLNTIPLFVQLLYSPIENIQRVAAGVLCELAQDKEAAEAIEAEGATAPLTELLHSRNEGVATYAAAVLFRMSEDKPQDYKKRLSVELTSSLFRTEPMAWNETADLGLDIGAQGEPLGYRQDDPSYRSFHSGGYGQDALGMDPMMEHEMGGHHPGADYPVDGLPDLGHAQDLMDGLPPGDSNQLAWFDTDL

T3: Bcat-Halo (beta-catenin HaloTag construct transfected into HEK293 cells) (UniProt P35222 1-781)
T3 sequence (looked up): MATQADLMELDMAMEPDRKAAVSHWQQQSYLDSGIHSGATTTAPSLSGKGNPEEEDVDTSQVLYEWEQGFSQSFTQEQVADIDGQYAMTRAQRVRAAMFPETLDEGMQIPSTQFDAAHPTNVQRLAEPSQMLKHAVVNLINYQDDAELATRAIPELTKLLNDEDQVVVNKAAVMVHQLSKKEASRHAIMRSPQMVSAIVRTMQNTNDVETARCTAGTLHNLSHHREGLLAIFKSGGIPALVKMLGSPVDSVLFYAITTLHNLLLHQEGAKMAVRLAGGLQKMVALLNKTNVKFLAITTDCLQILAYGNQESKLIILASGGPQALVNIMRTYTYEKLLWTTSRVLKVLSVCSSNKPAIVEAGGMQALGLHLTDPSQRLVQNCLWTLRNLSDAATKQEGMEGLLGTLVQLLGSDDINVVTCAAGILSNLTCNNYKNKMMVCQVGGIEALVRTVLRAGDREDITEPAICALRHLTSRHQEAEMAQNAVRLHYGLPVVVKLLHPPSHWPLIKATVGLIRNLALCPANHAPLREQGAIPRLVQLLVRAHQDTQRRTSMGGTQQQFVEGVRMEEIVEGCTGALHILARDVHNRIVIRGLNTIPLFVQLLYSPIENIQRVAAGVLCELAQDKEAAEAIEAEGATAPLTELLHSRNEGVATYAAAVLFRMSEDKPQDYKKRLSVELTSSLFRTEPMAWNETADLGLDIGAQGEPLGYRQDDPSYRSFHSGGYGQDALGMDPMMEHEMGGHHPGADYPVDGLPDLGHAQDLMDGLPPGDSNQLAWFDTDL

B1: I-1356 (peptide)
peptide: [αAllylPro]D[tBuAla][B5(4)]DDAAFS[PyrS2″]F[Bta]S-NH2
modifications: staple 1-4, 4-11; not fully specified; printed as PL3-Asp-Npg-B5-Asp-Asp-Ala-Ala-Phe-Ser-PyrS2-Phe-BztA-Ser-NH2

Each binder was assayed against T1, B-cat-Halo (beta-catenin HaloTag …) (assay: cell-based or functional assay).

Binder	NanoBRET Abs IC50 [µM]
Ac-[αAllylPro]D[tBuAla][B5(3)]DDAAFN[PyrS2″][Phe(2-Cl)][Bta][Phe(ol)] (staple 1-4, 4-11) [I-1083]	18.8
Ac-[αAllylPro]D[tBuAla][B5(3)]DDAAFT[S8][Phe(2-Cl)][Bta]Q-NH2 (staple 1-4, 4-11; also: earlier eluting staple isomer) [I-1086]	10.1
Ac-[αAllylPro]D[tBuAla][B5(3)]DDAAFT[S8][Phe(2-Cl)][Bta]Q-NH2 (staple 1-4, 4-11; also: later eluting staple isomer) [I-1087]	9.3
Ac-[αAllylPro]D[tBuAla][B5(3)]DEAAFT[S8][Phe(2-Cl)][Bta]Q-NH2 (staple 1-4, 4-11; also: earlier eluting staple isomer) [I-1088]	6.3
Ac-[αAllylPro]D[tBuAla][B5(3)]DEAAFT[S8][Phe(2-Cl)][Bta]Q-NH2 (staple 1-4, 4-11; also: later eluting staple isomer) [I-1089]	8.9
Ac-[αAllylPro]D[tBuAla][B5(3)]DDAAFT[S8][Phe(2-Cl)][Bta]T-NH2 (staple 1-4, 4-11) [I-1090]	6.1
Ac-[αAllylPro]D[tBuAla][B5(3)]DEAAFT[S8][Phe(2-Cl)][Bta]T-NH2 (staple 1-4, 4-11) [I-1091]	11.4
Ac-[αAllylPro]D[tBuAla][B5(3)]DDAAFT[S8][Phe(2-Cl)][Bta][dT]-NH2 (staple 1-4, 4-11) [I-1092]	7.7

The binders below were run against T2, Bcat-Halo (beta-catenin HaloTag fusion …) (assay: cell-based or functional assay).

Binder	NanoBRET Abs IC50 [µM]
[αAllylPro]D[tBuAla][B5(4)]DDAAFN[PyrS2″][Ala(cPent)][Bta]Q-NH2 (staple 1-4, 4-11) [I-1352]	19.5
[αAllylPro]D[tBuAla][B5(4)]DDAAFL[PyrS2″][Ala(cPent)][Bta]Q-NH2 (staple 1-4, 4-11) [I-1353]	8.8
B1	> 20
[αAllylPro]D[tBuAla][B5(4)]DDAAFS[PyrS2″]F[Bta]S-NH2 (staple 1-4, 4-11) [I-1357]	33.6
[αAllylPro]D[tBuAla][B5(4)]DDAAFL[PyrS2]F[Bta]Q-NH2 (staple 1-4, 4-11) [I-1361]	> 20
[αAllylPro]D[tBuAla][B5(4)]DDAAFL[PyrS2]F[Bta]Q-NH2 (staple 1-4, 4-11) [I-1362]	19.6
Ac-[αAllylPro]D[tBuAla][B5(4)]DDAAF[Phe(2-CF3)][PyrS2][3Thi][Bta]Q-NH2 (staple 1-4, 4-11) [I-1363]	5.5
Ac-[αAllylPro]D[tBuAla][B5(4)]DDAAF[Phe(3-CF3)][PyrS2][3Thi][Bta]Q-NH2 (staple 1-4, 4-11) [I-1364]	10.5
Ac-[αAllylPro]D[tBuAla][B5(4)]DDAAF[Phe(4-CF3)][PyrS2][3Thi][Bta]Q-NH2 (staple 1-4, 4-11) [I-1365]	9.7
Ac-[αAllylPro]D[tBuAla][B5(4)]DDAAFF[PyrS2][Phe(2-Cl)][Bta]Q-NH2 (staple 1-4, 4-11) [I-1366]	7.5
Ac-[αAllylPro]D[tBuAla][B5(4)]DDAAF[Phe(2-CF3)][PyrS2][Phe(2-Cl)][Bta]Q-NH2 (staple 1-4, 4-11) [I-1367]	7.8
Ac-[αAllylPro]D[tBuAla][B5(4)]DDAAF[Phe(3-CF3)][PyrS2][Phe(2-Cl)][Bta]Q-NH2 (staple 1-4, 4-11) [I-1368]	14.2
Ac-[αAllylPro]D[tBuAla][B5(4)]DDAAF[Phe(4-CF3)][PyrS2][Phe(2-Cl)][Bta]Q-NH2 (staple 1-4, 4-11) [I-1369]	9.9

The binders below were run against T3, Bcat-Halo (beta-catenin HaloTag …) (assay: cell-based or functional assay).

Binder	NanoBRET Abs IC50 [µM]
Ac-[αAllylPro]D[tBuAla][B5(4)]DD[(CH2NMe2)4SEF]AFL[PyrS2]F[Bta]Q (staple 1-4, 4-11) [I-1467]	9.6
Ac-[αAllylPro]DK([PEG2′-Lithocholoyl])[B5(4)]DDAAFL[PyrS2][3Thi][Bta]Q-NH2 (staple 1-4, 4-11) [I-1470]	> 20
Ac-[αAllylPro]DK(Me3AdamantC)[B5(4)]DDAAFL[PyrS2][3Thi][Bta]Q-NH2 (staple 1-4, 4-11) [I-1471]	> 20
Ac-[αAllylPro]DK([PEG2′-Me3AdamantC])[B5(4)]DDAAFL[PyrS2][3Thi][Bta]Q-NH2 (staple 1-4, 4-11) [I-1472]	> 20
Ac-[αAllylPro]D[tBuAla][B5(4)]DDAK([PEG2′-Lithocholoyl])FL[PyrS2″][3Thi][Bta]Q-NH2 (staple 1-4, 4-11) [I-1474]	> 20
Ac-[αAllylPro]D[tBuAla][B5(4)]DDAK([PEG2′-Me3AdamantC])FL[PyrS2″][3Thi][Bta]Q-NH2 (staple 1-4, 4-11) [I-1476]	> 20
Ac-[αAllylPro]D[tBuAla][B5(4)]DDAAFL[PyrS2″][3Thi][Bta]QK([PEG2′-Lithocholoyl])-NH2 (staple 1-4, 4-11) [I-1478]	17.1
